Values of other authors, collected in patent US7759315B2, “Treatment of inflammatory conditions of the intestine” (CSL Behring AG, priority 2005, dated 2010).
Non-standard residues stand in square brackets, D forms with d. No end group written: not given here. Orn = NCCC[C@H](N)C(=O)O; Aib = CC(C)(N)C(=O)O

Target: T1, LCAT (Homo sapiens, UniProt P04180)
T1 sequence (P04180 25-440): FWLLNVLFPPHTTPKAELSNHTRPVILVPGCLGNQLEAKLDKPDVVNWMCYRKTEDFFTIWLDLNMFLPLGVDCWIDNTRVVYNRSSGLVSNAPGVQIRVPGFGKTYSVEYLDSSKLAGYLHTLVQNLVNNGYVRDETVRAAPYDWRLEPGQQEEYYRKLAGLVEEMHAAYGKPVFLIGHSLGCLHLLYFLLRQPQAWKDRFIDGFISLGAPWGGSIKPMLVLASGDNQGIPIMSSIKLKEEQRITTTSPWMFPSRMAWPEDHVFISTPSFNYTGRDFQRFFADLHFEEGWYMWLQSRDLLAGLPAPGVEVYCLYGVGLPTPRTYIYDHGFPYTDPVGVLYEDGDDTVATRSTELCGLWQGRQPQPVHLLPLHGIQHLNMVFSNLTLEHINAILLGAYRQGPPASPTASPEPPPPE

| Substance | ACTIVITY (%) LCAT [%] |
| --- | --- |
| PVLDEFREKLNELLEALKQKLK [Peptide 84] | 7 |
| ~~LDEFREKLNEXLEALKQKLK (LDEFREKLNE[Aib]LEALKQKLK; not fully specified (C-terminus); printed as ~~LDEFREKLNEXLEALKQKLK) [Peptide 82] | 8 |
| PVLDEFRWKLNEXLEALKQKLK (PVLDEFRWKLNE[Aib]LEALKQKLK; not fully specified (C-terminus)) [Peptide 61] | 16 |
| PVLDEFREKLNKXLEALKQKLK (PVLDEFREKLNK[Aib]LEALKQKLK; not fully specified (C-terminus)) [Peptide 77] | 9 |
| PVLDLFRELLNELLEGLKQKLK [Peptide 22] | 54 |
| PVLELFENLLERLLDALQOOLO (PVLELFENLLERLLDALQ[Orn][Orn]L[Orn]; not fully specified (C-terminus)) [Peptide 185] | 3 |
| PVLDEFREKLNEXXEALKQKLK (PVLDEFREKLNE[Aib][Aib]EALKQKLK; not fully specified (C-terminus)) [Peptide 110] | 0 |
| PVLDLFRELLNEELEALKQKLK [Peptide 98] | 2 |
| PVLDLFREKLNEELEALKQKLK [Peptide 106] | 0 |
| PVLDFFREKLNEXLEALKQKLK (PVLDFFREKLNE[Aib]LEALKQKLK; not fully specified (C-terminus)) [Peptide 63] | 16 |
| PVLELFENLGERLLDALQKKLK [Peptide 151] | 55 |
| PVLELFKELLQELLEALKQKLK [Peptide 17] | 59 |
| PVLELFERLLDELLNALQKKLK [Peptide 86] | 7 |
| PVLDEFREKLNEXLEALEQKLK (PVLDEFREKLNE[Aib]LEALEQKLK) [Peptide 118] | 0 |
| PVLDLFOELLEELOQOLK* (PVLDLF[Orn]ELLEEL[Orn]Q[Orn]LK; not fully specified (N-terminus, C-terminus); printed as PVLDLFOELLEELOQOLK*) [Peptide 212] | 43 |
| PVLDLFERLLNELLEALQKKLK [Peptide 80] | 9 |
| PVLDEFREKLNEELEXLKQKLK (PVLDEFREKLNEELE[Aib]LKQKLK; not fully specified (C-terminus)) [Peptide 120] | 0 |
| pVLDLFRELLNELLEALKQKLK [Peptide 21] | 57 |
| PVLDEFREKLNEXMEALKQKLK (PVLDEFREKLNE[Aib]MEALKQKLK; not fully specified (C-terminus)) [Peptide 114] | 0 |
| PVFELFENLLERLLDALQKKLK [Peptide 152] | 50 |
| AVLELFENLLERLLDALQKKLK [Peptide 153] | 49 |
| ~~~DEFREKLNEXLEALKQKLK (DEFREKLNE[Aib]LEALKQKLK; not fully specified (C-terminus); printed as ~~~DEFREKLNEXLEALKQKLK) [Peptide 90] | 6 |
| PVLDEFRELLNEELEALKQKAK (PVLDEFRELLNEELEALKQKLK) [Peptide 103] | 1 |
| PVLDEFRELLNELLEALKQKLK [Peptide 79] | 9 |
| PVLDEFREKLWEXWEALKQKLK (PVLDEFREKLWE[Aib]WEALKQKLK; not fully specified (C-terminus)) [Peptide 111] | 0 |
| GVLDLFRELLNELLEALKQKLKK [Peptide 2] | 105 |
| PVLDEFREKLNEXLEALKQKL~ (PVLDEFREKLNE[Aib]LEALKQKL; not fully specified (C-terminus); printed as PVLDEFREKLNEXLEALKQKL~) [Peptide 58] | 18 |
| PVLDEFRELYNEXLEALKQKLK (PVLDEFRELYNE[Aib]LEALKQKLK; not fully specified (C-terminus)) [Peptide 92] | 5 |

Now from value to substance:

| ACTIVITY (%) LCAT [%] | Substance |
| --- | --- |
| 100 | PVLDLFKELLEELKQKLK* (not fully specified (N-terminus, C-terminus); printed as PVLDLFKELLEELKQKLK*) [Peptide 192] |
| 57 | PLLELLKELLEELKQKLK* (not fully specified (N-terminus, C-terminus); printed as PLLELLKELLEELKQKLK*) [Peptide 206] |
| 10 | GVLELFLNLLERLLDALQKKLK [Peptide 177] |
| 6 | PLLELFENLLEKLLDALQKKLK [Peptide 183] |
| 70 | PALELFKDLLEELRQKLR* (not fully specified (N-terminus, C-terminus); printed as PALELFKDLLEELRQKLR*) [Peptide 202] |
| 30 | PVLEFFENLLERLLDALQKKLK [Peptide 157] |
| 8 | PVLDAFRELLEALLQLKK [Peptide 222] |
| 35 | PVLELFLNLLERLLDALQKKLK [Peptide 156] |
| 22 | PVLELFLNLLEKLLDALQKKLK [Peptide 166] |
| 8 | PVLELFENLLERWLDALQKKLK [Peptide 181] |
| 13 | PVLELFENLLERLLELLNKKLK [Peptide 175] |
| 8 | PVLELFDNLLDKLLDALQKKLR [Peptide 180] |
| 35 | PVLELFKELLEELKQKLK [Peptide 216] |
| 17 | PVLELFENLLEKLLDALQKKLK [Peptide 169] |
| 17 | PVLELFEQLLEKLLDALQKKLK [Peptide 168] |
| 75 | NVLDLFRELLEELKQKLK* (not fully specified (N-terminus, C-terminus); printed as NVLDLFRELLEELKQKLK*) [Peptide 200] |
| 27 | PVLELFENLLERLLEALQKKLK [Peptide 161] |
| 38 | PVLELFLNLWERLLDALQKKLK [Peptide 155] |
| 50 | PVLELLKELLEELKQKLK* (not fully specified (N-terminus, C-terminus); printed as PVLELLKELLEELKQKLK*) [Peptide 207] |
| 7 | PVLELFENLLEKLLEALQKKLK [Peptide 182] |
| 74 | PLLDLFKELLEELKQKLK* (not fully specified (N-terminus, C-terminus); printed as PLLDLFKELLEELKQKLK*) [Peptide 201] |
| 87 | PVLELFKELLEELKQKLK* (not fully specified (N-terminus, C-terminus); printed as PVLELFKELLEELKQKLK*) [Peptide 195] |
| 60 | PVLDLFREWLEELKQKLK* (not fully specified (N-terminus, C-terminus); printed as PVLDLFREWLEELKQKLK*) [Peptide 205] |
| 29 | PVLDLFRELLNELLQKLK* (not fully specified (N-terminus, C-terminus); printed as PVLDLFRELLNELLQKLK*) [Peptide 218] |
| 18 | PVLELFENGLERLLDALQKKLK [Peptide 167] |
| 0 | PVLDLFREGLEELKQKLK* (not fully specified (N-terminus, C-terminus); printed as PVLDLFREGLEELKQKLK*) [Peptide 228] |
